The series has as its target Sclerostin (SOST) (Mus musculus, UniProt Q99P68 Q99P68:1-211). Description: ITC; PBS, 25 C; n=0.91, dH -10.9 kcal/mol, TdS -2.3 kcal/mol. Conditions: tags: GST fusion (pGEX-4T1, E. coli BL21(DE3)); parallel G4 (CD, Tm 75 C). Here is the method:
Sclerostin-aptamer interaction was investigated by studying the thermodynamics of the interaction of aptamer Scl 2 with sclerostin by Isothermal Titration Calorimetry. In the upper panel of FIG. 7 the calorimetric titrations of the aptamers into sclerostin solution conducted at 25° C. An exothermic heat pulse was observed after each injection of aptamers into the protein solution. The binding stoichiometry was fitted using simple single site binding model. […] The dissociation constant for the interaction of aptamer Scl 2 with sclerostin is 500 nM that is a competitive value in DNA-protein interactions. In addition, the values of ΔH and ΔS reveal that the binding processes are enthalpically driven with a favorable enthalpy of reaction (ΔH) at 25° C. of −10.9 kcal/mol offset by an unfavorable entropy of reaction (TΔS=−2.3 kcal/mol).
For Isothermal Titration Calorimetry, equilibrium binding studies between anti-sclerostin aptamers and scleorstin are performed on MicroCal VP-ITC. In a typical ITC experiment, 15 μM GST-sclerostin or 20 μM GST was loaded into the cell with 200 μM aptamer or random sequence in the titrating syringe. GST-sclerostin and GST were dialyzed into the PBS buffer with a MWCO of 10,000. The titration experiments were performed at 25° C. with an initial 0.2 μl injection, followed by thirty 1.2 μl A injections. The spacing between injections was 200 s. […]
(ITC needs no label: the signal is the heat of the interaction.)

Sequence of Sclerostin (SOST) (Q99P68 whole entry, the tested form may be a part, one chain of several): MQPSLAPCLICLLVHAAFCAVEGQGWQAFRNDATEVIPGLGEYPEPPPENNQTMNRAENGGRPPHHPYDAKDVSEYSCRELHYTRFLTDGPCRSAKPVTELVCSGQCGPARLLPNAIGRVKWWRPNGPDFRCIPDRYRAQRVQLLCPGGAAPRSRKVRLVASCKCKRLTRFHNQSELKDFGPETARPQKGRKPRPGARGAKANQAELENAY

B1: Scl 2 (ssDNA)
DNA: TTGCGCGTTAATTGGGGGGGTGGGTGGGTT
The term Kd denotes the equilibrium constant for the complex coming apart. Read a low Kd as a tighter complex. The molecule B1 showed a Kd of 0.5 µM.

The record behind these values is patent US8552166, “High-affinity nucleic acid aptamers against sclerostin protein” (The University of Hong Kong).
